Assay [1] concerns the target Naegleria fowleri G protein α subunit Nf Gα2 (Naegleria fowleri). Briefly: SPR; Proteon XPR36; ~5000 RU of His6-tagged Gα subunits immobilised on a nickel-NTA chip by covalent capture coupling; RGS domains injected as analyte at 20 μl/min; 50 mM Hepes pH 7.4, 150 mM NaCl, 0.05% NP-40 alternative, 50 μM EDTA, 1 mM MgCl2; Gα in the AMF state (100 μM GDP, 20 mM NaF, 30 μM AlCl3); equilibrium binding analysis. In general terms: SPR reads the build-up and loss of mass on a sensor chip optically.

The target in assay [2] is Naegleria fowleri G protein α subunit Nf Gα3 (Naegleria fowleri). The assay is described as above.
The target in a further assay is T1, Nf Gα7 (Naegleria fowleri, UniProt A0A6I8WFP8).
T1 construct: gene NF0037180; N-terminal TEV-cleavable His6 tag; E. coli
T1 sequence (A0A6I8WFP8 1-321): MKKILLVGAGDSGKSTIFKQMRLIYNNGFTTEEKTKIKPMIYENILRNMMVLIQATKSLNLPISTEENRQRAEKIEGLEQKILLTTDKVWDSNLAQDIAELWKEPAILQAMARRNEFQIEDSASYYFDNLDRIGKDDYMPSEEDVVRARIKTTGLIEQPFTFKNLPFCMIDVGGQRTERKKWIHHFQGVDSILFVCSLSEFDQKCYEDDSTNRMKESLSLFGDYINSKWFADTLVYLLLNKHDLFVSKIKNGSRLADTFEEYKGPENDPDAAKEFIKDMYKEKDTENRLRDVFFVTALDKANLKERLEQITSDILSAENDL
Kind of assay: intrinsic tryptophan fluorescence (activation). The class given is binding. Conditions: 0.5 μM protein, 1 μM nucleotide, 10 mM MgCl2, pH 7.5, 20 °C.

Assay [3] deals with T2, Nf Gα5 (Naegleria fowleri, UniProt A0A6A5BQC6).
T2 construct: gene FDP41_003899; N-terminal TEV-cleavable His6 tag; E. coli
T2 sequence (A0A6A5BQC6 57-394 limits assumed): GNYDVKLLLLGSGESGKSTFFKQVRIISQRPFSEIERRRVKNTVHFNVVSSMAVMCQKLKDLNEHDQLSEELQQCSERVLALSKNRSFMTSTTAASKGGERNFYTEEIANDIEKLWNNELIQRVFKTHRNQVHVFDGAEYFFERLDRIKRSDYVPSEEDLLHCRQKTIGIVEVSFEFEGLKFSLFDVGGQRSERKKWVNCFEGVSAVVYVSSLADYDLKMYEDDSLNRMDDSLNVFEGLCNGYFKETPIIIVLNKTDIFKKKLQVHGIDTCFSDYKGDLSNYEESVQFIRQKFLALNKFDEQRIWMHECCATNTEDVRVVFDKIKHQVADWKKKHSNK
Kind of assay: intrinsic tryptophan fluorescence (activation). Conditions: 0.5 μM protein, 1 μM nucleotide, 10 mM MgCl2, pH 7.5, 20 °C. It is filed as binding.

The target of assay [4] is T2, Nf Gα5. Kind of assay: intrinsic tryptophan fluorescence (activation, return after hydrolysis). It is filed as biochemical. Conditions: 0.5 μM protein, 1 μM nucleotide, 10 mM MgCl2, pH 7.5, 20 °C.

Broadly, the Kd is the constant that tells how readily two partners part at equilibrium. A low value points to a tighter complex.

Consider “RGS domain of Naegleria fowleri seven-transmembrane RGS protein Nf 7TM RGS2 (domain or fragment)”, for which the Kd came out at 630 nM in assay [1] and 550 nM in assay [2].

On to `Nc1nc2c(ncn2[C@@H]2O[C@H](COP(=O)(O)OP(=O)(O)NP(=O)(O)O)[C@@H](O)[C@H]2O)c(=O)[nH]1` [GppNHp], for which the “intrinsic tryptophan fluorescence (activation)” value at Nf Gα7 and at Nf Gα5 [3] was “achieved the active conformation in the presence of either GppNHp or GTP” in each case.

With `Nc1nc2c(ncn2[C@@H]2O[C@H](COP(=O)(O)OP(=O)(O)OP(=O)(O)O)[C@@H](O)[C@H]2O)c(=O)[nH]1` [GTP], at Nf Gα7, the “intrinsic tryptophan fluorescence (activation)” value is reported as “achieved the active conformation in the presence of either GppNHp or GTP”. At Nf Gα5 [4], the “intrinsic tryptophan fluorescence (activation, return after hydrolysis)” value is “returned slowly to near-baseline levels after multiple rounds of hydrolysis and exhaustion of available GTP”.

Take “RGS domain of Naegleria fowleri seven-transmembrane RGS protein Nf 7TM RGS4 (domain or fragment)”: the Kd in assay [2] turned out to be 1800 nM.

Turning to “RGS domain of Naegleria fowleri Nf RGS-RhoGEF (domain or fragment)”, the Kd in assay [1] stood at 2400 nM; in assay [2], 3300 nM.
